Experiment [1] deals with T1, human c-Met protein (human, UniProt P08581 25-932, limits assumed).
T1 construct: also called c-Met antigen
Nature of the experiment: method not described.

Experiment [2] concerns the target c-Met on MKN45 gastric cancer cells and on Caki-1 cells (human, UniProt P08581 25-1390). As to the kind of experiment: cell-based or functional assay.
Experiment [3] addresses T2, EEPAQ peptide (SEQ ID NO: 81).
T2 peptide: EEPAQ
Nature of the experiment: SPR (Biacore), huAbF46 on CM5 chip, peptide injected 0.39-100 nM. On the technique in general: Surface plasmon resonance follows binding to a sensor surface in real time, without labels.

Experiment [4] deals with T3, EEPSQ peptide (SEQ ID NO: 3).
T3 construct: the range is one residue short
T3 peptide: EEPSQ
The experiment is described as above.

The target of experiment [5] is T4, EEASQ peptide (SEQ ID NO: 80).
T4 peptide: EEASQ
Nature of the experiment: SPR (Biacore), huAbF46 on CM5 chip, peptide injected.

Experiment [6] addresses T5, AEPSQ peptide (SEQ ID NO: 78).
T5 peptide: AEPSQ
The description is as above.

The target in experiment [7] is T6, EAPSQ peptide (SEQ ID NO: 79).
T6 peptide: EAPSQ
The description is as above.

The target in experiment [8] is T7, AAAAA peptide (SEQ ID NO: 77).
T7 peptide: AAAAA
The experiment is described as above.

The target of experiment [9] is T8, EEPSA peptide (SEQ ID NO: 82).
T8 peptide: EEPSA
The description is as above.

Experiment [10] addresses T9, CQIEDPSQAPC (SEQ ID NO: 74).
T9 peptide: CQIEDPSQAPC
As to the kind of experiment: PEPSCAN peptide ELISA. The protocol: (§1) For epitope mapping, PEPSCAN-based ELISA was performed using a total number of 529 linear and CLIPS peptides. The peptides were maintained at room temperature for 30 minutes by using a 5% blocking solution to provoke a reaction (4% ovalbumin, 5% horse serum, and 1% Tween 80). […] Thereafter, the resultant product was treated with rabbit-anti-sheep antibody (SIGMA) and washed with PBS, and the washed product was then treated with peroxidase-attached swine-anti-rabbit antibody (SIGMA) and washed with PBS. Then, the resultant product was treated with 2 ul/ml of peroxidase 2,2′-azino-di-3-ethylbenzthiazoline sulfonate (ABTS)(SIGMA) in 3% H₂O₂, and a color reaction was measured after 1 hour.
On the technique in general: ELISA stands for enzyme-linked immunosorbent assay.

The target in experiment [11] is T10, CSPQIEDPSQC (SEQ ID NO: 72).
T10 peptide: CSPQIEDPSQC
As to the kind of experiment: PEPSCAN peptide ELISA. The protocol: as §1

Experiment [12] concerns the target T11, CIEDPSQAPDC (SEQ ID NO: 75).
T11 peptide: CIEDPSQAPDC
Nature of the experiment: PEPSCAN peptide ELISA. As for the experimental part: as §1

Experiment [13] addresses T12, CPQIEDPSQAC (SEQ ID NO: 73).
T12 peptide: CPQIEDPSQAC
As to the kind of experiment: PEPSCAN peptide ELISA. As for the experimental part: as §1

Experiment [14] has as its target T13, CEDPSQAPDAC (SEQ ID NO: 76).
T13 peptide: CEDPSQAPDAC
As to the kind of experiment: PEPSCAN peptide ELISA. As for the experimental part:
as §1

The target in experiment [15] is T14, FSPQIEDPSQCPDCVVSALGAKVL (SEQ ID NO: 71).
T14 construct: Peptide with the E168D mutation
T14 peptide: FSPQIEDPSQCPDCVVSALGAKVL
Nature of the experiment: PEPSCAN peptide ELISA. As for the experimental part: as §1

In experiment [16] the target is T1, human c-Met protein. Nature of the experiment: SPR (Biacore), against huAbF46 (Table 3). As for the experimental part: Affinities of the 4 types of antibodies against c-Met antigen were measured by using a Biacore (GE healthcare). About 80 to 110 RU of each antibody was immobilized on a CM5 chip, and 9 different concentrations ranging from 0.39 nM to 100 nM of human c-Met protein, as an antigen, were injected at a rate of 30 ul/min to obtain kₒₙ values and koff values as shown in Table 3. Then, KD values were calculated based thereon.

Usually Kd stands for a measure of binding affinity in units of concentration.

T1 sequence (P08581 25-932 limits assumed): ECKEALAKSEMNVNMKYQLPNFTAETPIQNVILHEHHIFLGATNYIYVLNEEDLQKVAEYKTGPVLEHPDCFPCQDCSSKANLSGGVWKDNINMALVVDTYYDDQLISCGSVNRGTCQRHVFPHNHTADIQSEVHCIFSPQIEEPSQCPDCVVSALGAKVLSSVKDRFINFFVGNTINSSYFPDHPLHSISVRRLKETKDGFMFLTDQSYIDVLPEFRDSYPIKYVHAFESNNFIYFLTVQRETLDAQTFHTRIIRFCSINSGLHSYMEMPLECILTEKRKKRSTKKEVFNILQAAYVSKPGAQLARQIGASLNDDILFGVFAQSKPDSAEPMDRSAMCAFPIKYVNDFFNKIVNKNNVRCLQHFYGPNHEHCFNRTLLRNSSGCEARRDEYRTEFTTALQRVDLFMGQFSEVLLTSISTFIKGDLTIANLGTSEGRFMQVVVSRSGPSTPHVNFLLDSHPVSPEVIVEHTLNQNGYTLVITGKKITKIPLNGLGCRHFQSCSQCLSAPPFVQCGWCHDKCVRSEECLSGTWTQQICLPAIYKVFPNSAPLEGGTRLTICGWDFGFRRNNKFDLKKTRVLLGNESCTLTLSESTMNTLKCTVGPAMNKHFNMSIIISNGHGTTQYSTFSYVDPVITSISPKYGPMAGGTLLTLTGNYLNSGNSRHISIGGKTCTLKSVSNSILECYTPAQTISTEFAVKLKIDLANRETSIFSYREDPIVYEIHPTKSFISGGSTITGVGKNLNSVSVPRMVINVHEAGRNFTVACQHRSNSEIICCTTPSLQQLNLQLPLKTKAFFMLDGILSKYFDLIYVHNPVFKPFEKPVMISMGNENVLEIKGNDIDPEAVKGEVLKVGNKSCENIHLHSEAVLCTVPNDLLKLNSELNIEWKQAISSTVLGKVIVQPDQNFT
Chain of c-Met on MKN45 gastric cancer cells and on Caki-1 cells (P08581 25-1390): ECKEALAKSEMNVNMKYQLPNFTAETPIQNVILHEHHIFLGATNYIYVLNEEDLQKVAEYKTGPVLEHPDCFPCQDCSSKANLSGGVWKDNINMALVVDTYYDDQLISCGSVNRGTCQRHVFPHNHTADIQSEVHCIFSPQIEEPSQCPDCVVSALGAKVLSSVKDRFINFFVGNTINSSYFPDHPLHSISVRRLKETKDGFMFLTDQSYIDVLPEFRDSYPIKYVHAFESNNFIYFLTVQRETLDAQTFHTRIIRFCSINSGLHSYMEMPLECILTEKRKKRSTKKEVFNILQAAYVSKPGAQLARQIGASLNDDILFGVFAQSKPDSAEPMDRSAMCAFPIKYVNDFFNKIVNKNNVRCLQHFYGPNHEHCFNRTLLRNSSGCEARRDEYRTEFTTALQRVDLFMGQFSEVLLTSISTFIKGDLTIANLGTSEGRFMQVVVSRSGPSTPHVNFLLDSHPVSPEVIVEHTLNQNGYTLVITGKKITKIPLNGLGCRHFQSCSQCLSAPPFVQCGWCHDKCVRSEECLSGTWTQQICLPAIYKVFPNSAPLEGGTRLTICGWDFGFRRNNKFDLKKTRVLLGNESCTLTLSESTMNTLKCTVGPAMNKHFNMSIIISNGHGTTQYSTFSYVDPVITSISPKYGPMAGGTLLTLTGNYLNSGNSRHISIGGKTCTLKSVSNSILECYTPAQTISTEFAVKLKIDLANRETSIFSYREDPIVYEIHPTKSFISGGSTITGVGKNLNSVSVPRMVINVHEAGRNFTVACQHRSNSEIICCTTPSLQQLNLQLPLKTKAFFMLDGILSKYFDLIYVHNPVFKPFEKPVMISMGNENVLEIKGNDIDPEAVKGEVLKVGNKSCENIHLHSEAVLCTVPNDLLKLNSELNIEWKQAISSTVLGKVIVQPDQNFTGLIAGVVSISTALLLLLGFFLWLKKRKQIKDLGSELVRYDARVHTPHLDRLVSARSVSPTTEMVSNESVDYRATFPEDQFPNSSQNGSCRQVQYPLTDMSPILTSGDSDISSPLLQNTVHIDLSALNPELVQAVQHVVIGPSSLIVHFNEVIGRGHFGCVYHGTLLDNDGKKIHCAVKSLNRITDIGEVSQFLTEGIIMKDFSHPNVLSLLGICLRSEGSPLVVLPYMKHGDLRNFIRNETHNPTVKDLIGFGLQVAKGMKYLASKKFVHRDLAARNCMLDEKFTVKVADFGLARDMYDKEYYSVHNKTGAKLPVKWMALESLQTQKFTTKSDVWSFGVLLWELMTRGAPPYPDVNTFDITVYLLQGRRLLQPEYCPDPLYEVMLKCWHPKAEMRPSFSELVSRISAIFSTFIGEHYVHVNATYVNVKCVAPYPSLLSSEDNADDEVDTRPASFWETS

B1: scFv of huAbF46 antibody (scFv)
scFv: EVQLVESGGGLVQPGGSLRLSCAASGFTFTDYYMSWVRQAPGKGLEWLGFIRNKANGYTTEYSASVKGRFTISRDNSKNTLYLQMNSLRAEDTAVYYCARDNWFAYWGQGTLVTVSSGLGGLGGGGSGGGGSGGSSGVGSDIQMTQSPSSLSASVGDRVTITCKSSQSLLASGNQNNYLAWHQQKPGKAPKMLIIWASTRVSGVPSRFSGSGSGTDFTLTISSLQPEDFATYYCQQSYSAPLTFGQGTKVEIKR
notes: 'VH-linker-VL' form; Tags or display fusion partner not described; also called wild-type antibody (scFv of huAbF46)
As to B1, the binding result in the experiment with human c-Met protein [1] is “binds”.

B2: huAbF46-H4-A5 (antibody, V domains shown)
VH: EVQLVESGGGLVQPGGSLRLSCAASGFTFTDYYMSWVRQAPGKGLEWLGFIRNKANGYTTEYSASVKGRFTISRDNSKNTLYLQMNSLRAEDTAVYYCARDNWFAYWGQGTLVTVSS
VL: DIQMTQSPSSLSASVGDRVTITCKSSQSLLASGNQNNYLAWHQQKPGKAPKMLIIWASTRVSGVPSRFSGSGSGTDFTLTISSLQPEDFATYYCQQSYSRPFTFGQGTKVEIKR
Regarding B2, the “degree of degradation of c-Met (total c-Met ELISA, MKN45 cells, 5 ug/ml antibody, 24 hours)” value (“degree of degradation of c-Met” for short) in [2] was ~28%.

B3: humanized antibody huAbF46 (H4-heavy chain and H4-light chain) (antibody, human IgG1, kappa, V domains shown)
VH: EVQLVESGGGLVQPGGSLRLSCAASGFTFTDYYMSWVRQAPGKGLEWLGFIRNKANGYTTEYSASVKGRFTISRDNSKNTLYLQMNSLRAEDTAVYYCARDNWFAYWGQGTLVTVSS
VL: DIQMTQSPSSLSASVGDRVTITCKSSQSLLASGNQNNYLAWHQQKPGKAPKMLIIWASTRVSGVPSRFSGSGSGTDFTLTISSLQPEDFATYYCQQSYSAPLTFGQGTKVEIKR
notes: also called humanized antibody AbF46
B3: the figures for the Kd in experiment [3] and in experiment [4] were 1.43 nM and 1.64 nM, respectively. Moreover, the binding result in experiment [5] is listed as “no binding (tested: 100 nM to 0.39 nM of the peptides)”; in experiment [6] it was “no binding (tested: 100 nM to 0.39 nM of the peptides)”; in [7], “no binding (tested: 100 nM to 0.39 nM of the peptides)”; in experiment [8] it was “no binding (tested: 100 nM to 0.39 nM of the peptides)”; in experiment [9] it was “no binding (tested: 100 nM to 0.39 nM of the peptides)”; in [10], “no binding (tested: 1 to 100 ug/ml of huAbF46 antibody)”. Moreover, the binding result in experiment [11], in experiment [12], in experiment [13], in experiment [14] and in experiment [15] was “no binding (tested: 1 to 100 ug/ml of huAbF46 antibody)” throughout.

B4: huAbF46-H4-A1 (antibody, V domains shown)
VH: EVQLVESGGGLVQPGGSLRLSCAASGFTFTDYYMSWVRQAPGKGLEWLGFIRNKANGYTTEYSASVKGRFTISRDNSKNTLYLQMNSLRAEDTAVYYCARDNWFAYWGQGTLVTVSS
VL: DIQMTQSPSSLSASVGDRVTITCKSSQSLLASGNQNNYLAWHQQKPGKAPKMLIIWASTRVSGVPSRFSGSGSGTDFTLTISSLQPEDFATYYCQQSYSRPYTFGQGTKVEIKR
notes: IgG; also called IgG from clone L3-1
On to B4, for which the “fold improvement of affinity” value with human c-Met protein [16] came out at 37 times. Further, the “degree of degradation of c-Met” value in experiment [2] is ~37%.

B5: huAbF46-H4-A3 (antibody, V domains shown)
VH: EVQLVESGGGLVQPGGSLRLSCAASGFTFTDYYMSWVRQAPGKGLEWLGFIRNKANGYTTEYSASVKGRFTISRDNSKNTLYLQMNSLRAEDTAVYYCARDNWFAYWGQGTLVTVSS
VL: DIQMTQSPSSLSASVGDRVTITCKSSQSLLASGNQNNYLAWHQQKPGKAPKMLIIWASTRVSGVPSRFSGSGSGTDFTLTISSLQPEDFATYYCAQSYSHPFSFGQGTKVEIKR
On to B5, for which the “degree of degradation of c-Met” value in experiment [2] is ~28%.

B6: huAbF46-H4-A2 (antibody, V domains shown)
VH: EVQLVESGGGLVQPGGSLRLSCAASGFTFTDYYMSWVRQAPGKGLEWLGFIRNKANGYTTEYSASVKGRFTISRDNSKNTLYLQMNSLRAEDTAVYYCARDNWFAYWGQGTLVTVSS
VL: DIQMTQSPSSLSASVGDRVTITCKSSQSLLASGNQNNYLAWHQQKPGKAPKMLIIWASTRVSGVPSRFSGSGSGTDFTLTISSLQPEDFATYYCGQSYSRPLTFGQGTKVEIKR
notes: IgG; also called IgG from clone L3-2
As for B6, the “fold improvement of affinity” value in the experiment with human c-Met protein [16] came to 5 times. Further, the “degree of degradation of c-Met” value in experiment [2] is ~28%.

Source of the values: patent publication US20130089557A1 (SAMSUNG ELECTRONICS, published 2013).
